The chains are these.
B1: FAM50A (parent)
chain: KALEILRKDFSELRSAGVEQLMYI
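Further: lentivirally expressed fusions sorted by FACS into six bins by GFP to DsRed ratio, PSI derived from sequencing read proportions per bin multiplied by bin number.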

Variants of B1 are the subject of the data set. In words: protein stability index of a GFP-peptide fusion (GPS, HEK-293T) (PSI 1-6); higher = more stable. The following applies: c terminus: a fixed tail appended.
In the case of VALEILRKDFSELRSAGVEQLMYI, the protein stability index turned out to be 1.18.

As for YALEILRKDFSELRSAGVEQLMYI, the protein stability index turned out to be 3.42.

As for KRLEILRKDFSELRSAGVEQLMYI, the protein stability index was 3.76.

Take KHLEILRKDFSELRSAGVEQLMYI: the protein stability index amounted to 1.48.

As to KDLEILRKDFSELRSAGVEQLMYI, the protein stability index stood at 3.3.

As to KKLEILRKDFSELRSAGVEQLMYI, the protein stability index was 1.75.

With KNLEILRKDFSELRSAGVEQLMYI, the protein stability index came to 1.04.

For the variant KLLEILRKDFSELRSAGVEQLMYI, the protein stability index was determined as 1.15.

On to KPLEILRKDFSELRSAGVEQLMYI, for which the protein stability index worked out at 1.95.

In the case of KSLEILRKDFSELRSAGVEQLMYI, the protein stability index turned out to be 2.96.

KFLEILRKDFSELRSAGVEQLMYI: the protein stability index was determined as 2.4.

On to KVLEILRKDFSELRSAGVEQLMYI, for which the protein stability index is 1.49.

As for KWLEILRKDFSELRSAGVEQLMYI, the protein stability index is 2.73.

For the variant KCLEILRKDFSELRSAGVEQLMYI, the protein stability index is 4.79.

For KALEYLRKDFSELRSAGVEQLMYI, the protein stability index stood at 2.52.

Take KALETLRKDFSELRSAGVEQLMYI: the protein stability index stood at 2.4.

On to KALEFLRKDFSELRSAGVEQLMYI, for which the protein stability index amounted to 1.5.

Take KALECLRKDFSELRSAGVEQLMYI: the protein stability index came to 2.39.

On to KALEDLRKDFSELRSAGVEQLMYI, for which the protein stability index turned out to be 1.55.

For the variant KALEWLRKDFSELRSAGVEQLMYI, the protein stability index was found to be 2.75.

Regarding KALEHLRKDFSELRSAGVEQLMYI, the protein stability index stood at 3.56.

Take KALEKLRKDFSELRSAGVEQLMYI: the protein stability index was 1.69.

For KALEMLRKDFSELRSAGVEQLMYI, the protein stability index was determined as 3.79.

Consider KALEPLRKDFSELRSAGVEQLMYI, for which the protein stability index amounted to 1.78.

Consider KALVILRKDFSELRSAGVEQLMYI, for which the protein stability index was 2.21.

Regarding KALPILRKDFSELRSAGVEQLMYI, the protein stability index turned out to be 2.74.

KALDILRKDFSELRSAGVEQLMYI: the protein stability index was 1.62.

With KALKILRKDFSELRSAGVEQLMYI, the protein stability index stood at 2.34.

On to KALFILRKDFSELRSAGVEQLMYI, for which the protein stability index stood at 3.86.

As to KALIILRKDFSELRSAGVEQLMYI, the protein stability index is 2.76.

Consider KALEILRKDASELRSAGVEQLMYI, for which the protein stability index came out at 1.74.

On to KALEILRKDMSELRSAGVEQLMYI, for which the protein stability index worked out at 2.52.

For the variant KALEILRKDVSELRSAGVEQLMYI, the protein stability index stood at 3.72.

As to KALEILRKDNSELRSAGVEQLMYI, the protein stability index came out at 2.32.

As for KALEILRKDHSELRSAGVEQLMYI, the protein stability index amounted to 3.24.

For KALEIARKDFSELRSAGVEQLMYI, the protein stability index came to 1.41.

With KALEITRKDFSELRSAGVEQLMYI, the protein stability index is 1.85.

Take KALEIVRKDFSELRSAGVEQLMYI: the protein stability index turned out to be 2.36.

As for KALEIQRKDFSELRSAGVEQLMYI, the protein stability index turned out to be 2.51.

As to KALEIHRKDFSELRSAGVEQLMYI, the protein stability index turned out to be 1.55.

Consider KALEIPRKDFSELRSAGVEQLMYI, for which the protein stability index was determined as 2.03.

As to KALEIERKDFSELRSAGVEQLMYI, the protein stability index came to 2.13.

For KALEIRRKDFSELRSAGVEQLMYI, the protein stability index was 1.89.

With KALEIFRKDFSELRSAGVEQLMYI, the protein stability index turned out to be 2.24.

Turning to KALEIDRKDFSELRSAGVEQLMYI, the protein stability index came out at 2.

As to KALEISRKDFSELRSAGVEQLMYI, the protein stability index was 2.27.

With KALEINRKDFSELRSAGVEQLMYI, the protein stability index was determined as 1.74.

In the case of KALEIGRKDFSELRSAGVEQLMYI, the protein stability index was 1.57.

KALEIKRKDFSELRSAGVEQLMYI: the protein stability index was 1.09.

Regarding KALEILRKDFSNLRSAGVEQLMYI, the protein stability index stood at 3.69.

For KALEILRKDFSALRSAGVEQLMYI, the protein stability index amounted to 2.97.

Regarding KALEILRKDFSLLRSAGVEQLMYI, the protein stability index turned out to be 2.09.

In the case of KALEILRKDFSQLRSAGVEQLMYI, the protein stability index was 3.76.

Consider KALEILRKDFYELRSAGVEQLMYI, for which the protein stability index turned out to be 1.21.

On to KALEILRKDFEELRSAGVEQLMYI, for which the protein stability index was found to be 2.51.

As to KALEILRKDFDELRSAGVEQLMYI, the protein stability index was found to be 1.6.

As to KALEILRKDFIELRSAGVEQLMYI, the protein stability index was 3.09.

KALEILRKDFHELRSAGVEQLMYI: the protein stability index was determined as 2.97.

KALEILRKDFRELRSAGVEQLMYI: the protein stability index is 2.76.

In the case of KALEILAKDFSELRSAGVEQLMYI, the protein stability index was 1.25.

Take KALEILHKDFSELRSAGVEQLMYI: the protein stability index is 2.58.

For KALEILLKDFSELRSAGVEQLMYI, the protein stability index was 3.87.

For KALEILTKDFSELRSAGVEQLMYI, the protein stability index is 2.91.

Regarding KALEILPKDFSELRSAGVEQLMYI, the protein stability index came to 2.28.

As to KALEILIKDFSELRSAGVEQLMYI, the protein stability index is 2.18.

Take KALEILEKDFSELRSAGVEQLMYI: the protein stability index is 1.54.

As for KALEILFKDFSELRSAGVEQLMYI, the protein stability index is 3.25.

Regarding KALEILSKDFSELRSAGVEQLMYI, the protein stability index was 2.59.

As to KALEILRKMFSELRSAGVEQLMYI, the protein stability index was 2.56.

On to KALEILRKQFSELRSAGVEQLMYI, for which the protein stability index worked out at 1.2.

For the variant KALEILRKAFSELRSAGVEQLMYI, the protein stability index came out at 2.4.

With KALEILRKFFSELRSAGVEQLMYI, the protein stability index was 2.6.

For KALEILRKCFSELRSAGVEQLMYI, the protein stability index was determined as 2.89.

For the variant KALEILRKVFSELRSAGVEQLMYI, the protein stability index turned out to be 2.25.

As to KALEILRKEFSELRSAGVEQLMYI, the protein stability index was 3.81.

For the variant KALEILRKSFSELRSAGVEQLMYI, the protein stability index is 3.85.

Regarding KALEILRKLFSELRSAGVEQLMYI, the protein stability index amounted to 1.57.

With KANEILRKDFSELRSAGVEQLMYI, the protein stability index turned out to be 1.5.

Turning to KADEILRKDFSELRSAGVEQLMYI, the protein stability index is 1.73.

For KAHEILRKDFSELRSAGVEQLMYI, the protein stability index was 1.57.

KAKEILRKDFSELRSAGVEQLMYI: the protein stability index was found to be 2.58.

Consider KAREILRKDFSELRSAGVEQLMYI, for which the protein stability index worked out at 2.52.

Turning to KAPEILRKDFSELRSAGVEQLMYI, the protein stability index amounted to 2.77.

Regarding KATEILRKDFSELRSAGVEQLMYI, the protein stability index stood at 1.84.

As to KACEILRKDFSELRSAGVEQLMYI, the protein stability index is 3.15.

Turning to KAMEILRKDFSELRSAGVEQLMYI, the protein stability index amounted to 2.02.

Turning to KALEILRRDFSELRSAGVEQLMYI, the protein stability index turned out to be 4.36.

In the case of KALEILRLDFSELRSAGVEQLMYI, the protein stability index amounted to 4.84.

With KALEILRWDFSELRSAGVEQLMYI, the protein stability index is 3.31.

For the variant KALEILRDDFSELRSAGVEQLMYI, the protein stability index was 2.16.

For the variant KALEILRFDFSELRSAGVEQLMYI, the protein stability index turned out to be 3.19.

KALEILRNDFSELRSAGVEQLMYI: the protein stability index was determined as 3.03.

For the variant KALEILRGDFSELRSAGVEQLMYI, the protein stability index came to 3.52.

KALEILRIDFSELRSAGVEQLMYI: the protein stability index was 2.27.

The values above are taken from the supplement of paper PMC10567573.
